In patent US20210002356A1 (ZHUHAI TRINOMAB BIOTECHNOLOGY, published 2021) one finds Kd, koff and kon data, which are given here for two molecules.

This test concerns the target tetanus toxin (Clostridium tetani, UniProt P04958 2-1315).

The Kd is the equilibrium constant for the complex coming apart. A lower Kd goes with a tighter complex. The koff is a measure of how fast the partners let go of each other. In general, kon refers to a measure of how fast the partners come together.

Chain of tetanus toxin (P04958 2-457 limits assumed, chain 1 of 2): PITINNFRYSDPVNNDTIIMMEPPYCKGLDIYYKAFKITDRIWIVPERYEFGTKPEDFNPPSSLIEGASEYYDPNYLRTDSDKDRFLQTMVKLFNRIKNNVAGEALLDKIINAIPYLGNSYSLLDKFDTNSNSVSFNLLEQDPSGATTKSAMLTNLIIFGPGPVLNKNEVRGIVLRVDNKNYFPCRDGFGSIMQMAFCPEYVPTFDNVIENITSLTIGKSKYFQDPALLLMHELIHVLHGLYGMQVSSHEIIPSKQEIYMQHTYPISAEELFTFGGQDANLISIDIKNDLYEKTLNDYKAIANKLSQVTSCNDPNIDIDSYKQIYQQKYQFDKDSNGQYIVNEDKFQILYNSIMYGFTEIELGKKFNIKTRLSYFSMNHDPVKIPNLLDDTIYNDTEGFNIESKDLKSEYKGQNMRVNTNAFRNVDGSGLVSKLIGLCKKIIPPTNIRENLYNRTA
Chain of tetanus toxin (P04958 458-1315 limits assumed, chain 2 of 2): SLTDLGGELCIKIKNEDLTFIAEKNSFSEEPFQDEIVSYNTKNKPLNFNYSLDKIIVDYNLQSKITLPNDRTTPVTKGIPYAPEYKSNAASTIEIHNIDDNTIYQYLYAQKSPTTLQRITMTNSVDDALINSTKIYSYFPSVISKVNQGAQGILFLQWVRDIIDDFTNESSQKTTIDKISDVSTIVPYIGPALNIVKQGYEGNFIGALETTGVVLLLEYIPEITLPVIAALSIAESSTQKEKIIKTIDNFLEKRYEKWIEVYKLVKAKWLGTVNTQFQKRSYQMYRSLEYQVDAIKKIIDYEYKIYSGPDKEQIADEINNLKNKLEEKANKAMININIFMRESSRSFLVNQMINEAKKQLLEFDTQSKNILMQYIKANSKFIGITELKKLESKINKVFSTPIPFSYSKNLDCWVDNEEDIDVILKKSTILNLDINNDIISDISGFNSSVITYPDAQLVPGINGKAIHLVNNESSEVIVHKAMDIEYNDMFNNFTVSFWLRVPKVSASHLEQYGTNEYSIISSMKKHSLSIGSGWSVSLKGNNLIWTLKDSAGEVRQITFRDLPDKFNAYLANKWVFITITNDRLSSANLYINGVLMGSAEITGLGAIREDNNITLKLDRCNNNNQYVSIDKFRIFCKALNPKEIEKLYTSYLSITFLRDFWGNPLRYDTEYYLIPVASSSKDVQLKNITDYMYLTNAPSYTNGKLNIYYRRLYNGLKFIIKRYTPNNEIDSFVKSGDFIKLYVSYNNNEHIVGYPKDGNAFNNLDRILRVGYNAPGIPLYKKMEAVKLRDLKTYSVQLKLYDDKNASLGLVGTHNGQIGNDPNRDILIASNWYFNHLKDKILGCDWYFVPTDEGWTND

B1: TRN0012 antibody (antibody, V domains shown)
VH: EVQLVQSGAEVKKPGESLRISCQGSGYTFTNYWIGWVRQMPGKGLEWMGIVYPGDSDTRYSPSFQGQITISADKSISTAYLQWNNLKASDTGMYYCATQQSNPYDSGSYWYFDSWGQGTLVTVSS
VL: DIVMTQSPPSLSASIGDRVTITCRASQGIRNFLAWYQQKPGKVPKLLIYAASTLQSGVPSRFSGSGSGTDFTLTISSLQPEDVATYYCQKYFSAPPDFGQGTRLEIK
Regarding B1, the Kd worked out at 4.07 nM, the koff was found to be 0.000328 s⁻¹ and the on-rate (kon) turned out to be 80600 M⁻¹ s⁻¹.

B2: TRN0010 antibody (antibody, V domains shown)
VH: QVQLQESGPGLVKPSETLSLRCTVSGGSISSYYWSWFRQPPGKGLEWIGYVHYSGSTNYNPSLKSRFTLSVDTSKSQFSLRLRSVTAADTAIYYCARDKYQTDVSDIWGQGTVVTVSS
VL: DIQMTQSPGTLSLSPGERATLSCRASQSITSSFLAWYQQKPGQAPRLLIYGASSRATGIPDRFSGSGSGTDFILTISRLEPEDFAVYYCQQYDTSRTFGQGTTVEIK
B2 gave a Kd of 3.68 nM, a koff of 0.000153 s⁻¹ and a kon of 41500 M⁻¹ s⁻¹.
